From the supplement of paper PMC10567573

B1: BCL2L13 (parent)
chain: QSLDQEILLKVKTEIEEELKSLDK
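Further: lentivirally expressed fusions sorted by FACS into six bins by GFP to DsRed ratio, PSI derived from sequencing read proportions per bin multiplied by bin number.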

Variants of: B1
Test: protein stability index of a GFP-peptide fusion (GPS, HEK-293T) (PSI 1-6); higher = more stable
Settings: c terminus: a fixed tail appended
With QSLDQEILLKVKTEIEEELKSLDN [K24N] the protein stability index was 5.04.
QSLDQQILLKVKTEIEEELKSLDK [E6Q] showed a protein stability index of 4.56.
Work on QSLDKEILLKVKTEIEEELKSLDK [Q5K] yielded a protein stability index of 4.7.
Work on QSLDQEILLKVKTEIECELKSLDK [E17C] yielded a protein stability index of 3.87.
In the case of QSLDQEILLKVKTEIEEELKSRDK [L22R], the protein stability index is reported as 4.67.
With QSLDQEILLKVKTEIEEELLSLDK [K20L] the protein stability index was 4.56.
Work on QSLDQEILLKKKTEIEEELKSLDK [V11K] yielded a protein stability index of 5.99.
In the case of QSLDQEILLKVKTEIEETLKSLDK [E18T], the protein stability index is reported as 3.92.
QSLDQEILLKWKTEIEEELKSLDK [V11W] showed a protein stability index of 5.5.
ISLDQEILLKVKTEIEEELKSLDK [Q1I] gave a protein stability index of 3.44.
QILDQEILLKVKTEIEEELKSLDK [S2I] showed a protein stability index of 4.91.
Variant QSLDQIILLKVKTEIEEELKSLDK [E6I] has a protein stability index of 3.27.
Work on QSLDQEILLKVKTEQEEELKSLDK [I15Q] yielded a protein stability index of 5.46.
QSLDQEILLKVKTEIEEELFSLDK [K20F] gave a protein stability index of 4.2.
With QSLDQEIFLKVKTEIEEELKSLDK [L8F] the protein stability index was 5.14.
Variant GSLDQEILLKVKTEIEEELKSLDK [Q1G] has a protein stability index of 4.67.
QSLDCEILLKVKTEIEEELKSLDK [Q5C] gave a protein stability index of 4.67.
In the case of QSLDQEILLKVKTEIEEELKILDK [S21I], the protein stability index is reported as 4.77.
QSLDQEILLKVKTEIEEELKYLDK [S21Y] showed a protein stability index of 4.25.
For QSLDQEILLKVKTEIEEEHKSLDK [L19H], the protein stability index was 4.97.
For QSLDQEILLKVKTEIEEKLKSLDK [E18K], the protein stability index was 3.74.
Variant QSLDQEFLLKVKTEIEEELKSLDK [I7F] has a protein stability index of 4.64.
In the case of QSLDQEILLKVKTEIEEELKSLDR [K24R], the protein stability index is reported as 4.53.
For QSLDQEILRKVKTEIEEELKSLDK [L9R], the protein stability index was 5.05.
For QSLDQDILLKVKTEIEEELKSLDK [E6D], the protein stability index was 4.83.
With QSLDQEILLNVKTEIEEELKSLDK [K10N] the protein stability index was 5.21.
Work on QSLDQEILLVVKTEIEEELKSLDK [K10V] yielded a protein stability index of 3.53.
Work on QSLDQEILLKVKAEIEEELKSLDK [T13A] yielded a protein stability index of 3.97.
In the case of QSLDQEILLKVKTKIEEELKSLDK [E14K], the protein stability index is reported as 4.15.
With QSLDQEILLPVKTEIEEELKSLDK [K10P] the protein stability index was 5.4.
QSLDQEILLKVKTEIEYELKSLDK [E17Y] showed a protein stability index of 3.67.
For QSLDQHILLKVKTEIEEELKSLDK [E6H], the protein stability index was 4.15.
With QSLDQEILLKVETEIEEELKSLDK [K12E] the protein stability index was 5.6.
In the case of QSLDQNILLKVKTEIEEELKSLDK [E6N], the protein stability index is reported as 5.24.
In the case of QSLDQFILLKVKTEIEEELKSLDK [E6F], the protein stability index is reported as 3.51.
With QSLDQEILLKVKTEIEELLKSLDK [E18L] the protein stability index was 3.06.
With QSLDPEILLKVKTEIEEELKSLDK [Q5P] the protein stability index was 4.4.
QSLDQEILLKVKTEIEEEEKSLDK [L19E] gave a protein stability index of 5.71.
Work on QSLDQEILLKVDTEIEEELKSLDK [K12D] yielded a protein stability index of 4.08.
Variant QSLDQEILLKVKTEIESELKSLDK [E17S] has a protein stability index of 4.81.
For QSLDQEILLFVKTEIEEELKSLDK [K10F], the protein stability index was 3.67.
Variant QHLDQEILLKVKTEIEEELKSLDK [S2H] has a protein stability index of 4.75.
In the case of YSLDQEILLKVKTEIEEELKSLDK [Q1Y], the protein stability index is reported as 3.69.
QSLDQEILLKVKTEIEHELKSLDK [E17H] showed a protein stability index of 4.51.
QSLDQEILLKIKTEIEEELKSLDK [V11I] showed a protein stability index of 4.19.
Work on QQLDQEILLKVKTEIEEELKSLDK [S2Q] yielded a protein stability index of 4.97.
In the case of QSLDQEILLKVKTEIEEFLKSLDK [E18F], the protein stability index is reported as 3.8.
QSLDQEILLKVKTEIEEELKSIDK [L22I] showed a protein stability index of 4.49.
QSKDQEILLKVKTEIEEELKSLDK [L3K] showed a protein stability index of 4.88.
In the case of QSLDQEILLKQKTEIEEELKSLDK [V11Q], the protein stability index is reported as 5.54.
For QSLDQEILLKVPTEIEEELKSLDK [K12P], the protein stability index was 5.38.
Variant QSLDQEQLLKVKTEIEEELKSLDK [I7Q] has a protein stability index of 5.12.
Work on QNLDQEILLKVKTEIEEELKSLDK [S2N] yielded a protein stability index of 4.92.
Work on QSLDQEIWLKVKTEIEEELKSLDK [L8W] yielded a protein stability index of 2.91.
For QSLDQEILLKVFTEIEEELKSLDK [K12F], the protein stability index was 3.15.
QSLDQEILLKVKTEIEEELKHLDK [S21H] gave a protein stability index of 4.44.
With QSLDQEILLKVKTEIEEELKSLDA [K24A] the protein stability index was 5.1.
QSLHQEILLKVKTEIEEELKSLDK [D4H] showed a protein stability index of 4.69.
Work on QSLDQEILLKVKTRIEEELKSLDK [E14R] yielded a protein stability index of 3.85.
Work on QSLDQEILLKVKIEIEEELKSLDK [T13I] yielded a protein stability index of 2.44.
In the case of QSLDQEILLKVKTEHEEELKSLDK [I15H], the protein stability index is reported as 5.29.
With QSLDQEILLKVKTEIERELKSLDK [E17R] the protein stability index was 3.99.
In the case of QSLDQEILFKVKTEIEEELKSLDK [L9F], the protein stability index is reported as 4.66.
Work on QSLDQWILLKVKTEIEEELKSLDK [E6W] yielded a protein stability index of 2.76.
In the case of QSLDQEILLKVKTEIEEELKSADK [L22A], the protein stability index is reported as 4.81.
In the case of QSLDQEILLKVKTEIEEELGSLDK [K20G], the protein stability index is reported as 5.03.
With QSLDQEILLKVKTEIEEELKGLDK [S21G] the protein stability index was 5.35.
In the case of QSLDQEILLKVKTEIEEEQKSLDK [L19Q], the protein stability index is reported as 5.49.
Work on QSLDQEILLKVKTYIEEELKSLDK [E14Y] yielded a protein stability index of 3.16.
In the case of QSLDQEILLKVSTEIEEELKSLDK [K12S], the protein stability index is reported as 4.61.
Work on QSLDQEILLKVKTENEEELKSLDK [I15N] yielded a protein stability index of 5.58.
QSLDQEILLKVKTCIEEELKSLDK [E14C] gave a protein stability index of 4.03.
Work on QSLDQEILLKVGTEIEEELKSLDK [K12G] yielded a protein stability index of 5.65.
For QSLDQEILLKVKTEIEEELCSLDK [K20C], the protein stability index was 4.9.
In the case of QSLDQEILLKVKWEIEEELKSLDK [T13W], the protein stability index is reported as 3.48.
Variant QSLDQEILLKVKTEIVEELKSLDK [E16V] has a protein stability index of 3.69.
Variant QSLMQEILLKVKTEIEEELKSLDK [D4M] has a protein stability index of 2.83.
QSLDQEILLKVKTEIEEELMSLDK [K20M] gave a protein stability index of 4.48.
QSLDQEILLKVKTNIEEELKSLDK [E14N] gave a protein stability index of 4.58.
Work on QSLDQEILLKVKTEIKEELKSLDK [E16K] yielded a protein stability index of 4.76.
Variant QSLDQEILLKVKTEIELELKSLDK [E17L] has a protein stability index of 3.72.
With QSLDQEILLKVKTEIEEELKSLDW [K24W] the protein stability index was 4.94.
Variant QSLDLEILLKVKTEIEEELKSLDK [Q5L] has a protein stability index of 2.99.
Variant QSLDQEILLKVKTEIEEELESLDK [K20E] has a protein stability index of 5.67.
With QSLDQEILLKVKTEIEEESKSLDK [L19S] the protein stability index was 5.
Work on QSLDQEILLKVKTEIEEELKSLKK [D23K] yielded a protein stability index of 4.33.
With QSSDQEILLKVKTEIEEELKSLDK [L3S] the protein stability index was 5.31.
Work on QSLDQEILLKVKTIIEEELKSLDK [E14I] yielded a protein stability index of 2.92.
Work on QSLDQSILLKVKTEIEEELKSLDK [E6S] yielded a protein stability index of 4.79.
For QSLDQEILLKVKTEIEEELKALDK [S21A], the protein stability index was 4.83.
Work on QSLDQEILLKVKTEIEEPLKSLDK [E18P] yielded a protein stability index of 4.32.
In the case of QSLDQEILLKAKTEIEEELKSLDK [V11A], the protein stability index is reported as 5.53.
LSLDQEILLKVKTEIEEELKSLDK [Q1L] gave a protein stability index of 3.7.
QSLNQEILLKVKTEIEEELKSLDK [D4N] gave a protein stability index of 4.52.
